# From US9975933B2, “Tumor tissue-penetrating peptide specific to neuropilin and fusion protein having same peptide fused therein” (AJOU UNIVERSITY INDUSTRY-ACADEMIC COOPERATION FOUNDATION, priority 2013, dated 2018)
# T1: NRP2-b1b2 (b1b2 domain of neuropilin-2) (Homo sapiens, UniProt O60462)
# T1 construct: b1b2 domains (275-595) of neuropilin-2
# T1 sequence (O60462 275-595): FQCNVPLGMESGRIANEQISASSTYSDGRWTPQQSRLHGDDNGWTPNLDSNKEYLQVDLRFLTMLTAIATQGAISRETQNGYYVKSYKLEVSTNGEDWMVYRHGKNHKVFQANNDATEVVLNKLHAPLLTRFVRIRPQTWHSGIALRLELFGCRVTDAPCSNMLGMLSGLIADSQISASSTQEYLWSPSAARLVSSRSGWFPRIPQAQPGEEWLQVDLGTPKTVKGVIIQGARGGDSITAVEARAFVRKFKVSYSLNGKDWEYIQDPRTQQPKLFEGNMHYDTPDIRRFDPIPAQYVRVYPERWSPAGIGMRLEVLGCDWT
# B1: Sema3A: Secreted class 3 semaphorin 3A (26-760), neuropilin ligand, control group (protein)
# chain: KNNVPRLKLSYKEMLESNNVITFNGLANSSSYHTFLLDEERSRLYVGAKDHIFSFDLVNIKDFQKIVWPVSYTRRDECKWAGKDILKECANFIKVLKAYNQTHLYACGTGAFHPICTYIEIGHHPEDNIFKLENSHFENGRGKSPYDPKLLTASLLIDGELYSGTAADFMGRDFAIFRTLGHHHPIRTEQHDSRWLNDPKFISAHLISESDNPEDDKVYFFFRENAIDGEHSGKATHARIGQICKNDFGGHRSLVNKWTTFLKARLICSVPGPNGIDTHFDELQDVFLMNFKDPKNPVVYGVFTTSSNIFKGSAVCMYSMSDVRRVFLGPYAHRDGPNYQWVPYQGRVPYPRPGTCPSKTFGGFDSTKDLPDDVITFARSHPAMYNPVFPMNNRPIVIKTDVNYQFTQIVVDRVDAEDGQYDVMFIGTDVGTVLKVVSIPKETWYDLEEVLLEEMTVFREPTAISAMELSTKQQQLYIGSTAGVAQLPLHRCDIYGKACAECCLARDPYCAWDGSACSRYFPTAKRRTRRQDIRNGDPLTHCSDLHHDNHHGHSPEERIIYGVENSSTFLECSPKSQRALVYWQFQRRNEERKEEIRVDDHIIRTDQGLLLRSLQQKDSGNYLCHAVEHGFIQTLLKVTLEVIDTEHLEELLHKDDDGDGSKTKEMSNSMTPSQKVWYRDFMQLINHPNLNTMDEFCEQVWKRDRKQRRQRPGHTPGNSNKWKHLQENKKGRNRR
# Target: T2, NRP1-b1b2 (b1b2 domain of neuropilin-1) (Homo sapiens, UniProt O14786)
# T2 construct: b1b2 domains (273-586) of neuropilin-1
# Test: SPR (Biacore2000) binding to b1b2 domain of neuropilin-1
# Conditions: NRP1-b1b2, SPR
# Procedure: (§1) Specifically, each b1b2 domain of neuropilin-1 and -2 was diluted with 10 mM Na-acetate buffer (pH 4.0), and fixed onto CMS sensor chips (GE healthcare, USA) in about 1000 response units (RU). […] After bond and dissociation analysis, the regeneration of CMS chip was performed by streaming a buffer (20 Mm NaOH, 1 M NaCl, pH 10.0) at a stream velocity 30 μl/min for 1 minute.
# T2 sequence (O14786 273-586): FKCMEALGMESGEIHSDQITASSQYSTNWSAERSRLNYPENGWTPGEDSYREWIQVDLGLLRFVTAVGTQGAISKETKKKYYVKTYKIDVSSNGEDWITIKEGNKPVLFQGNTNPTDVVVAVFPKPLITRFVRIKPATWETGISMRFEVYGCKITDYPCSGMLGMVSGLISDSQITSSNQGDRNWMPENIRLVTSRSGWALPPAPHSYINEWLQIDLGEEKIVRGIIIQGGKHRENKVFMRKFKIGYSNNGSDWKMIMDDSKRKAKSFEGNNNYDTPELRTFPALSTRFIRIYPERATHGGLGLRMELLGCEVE
Association rate ka,Dissociation rate kd,Molecule
1.35 ± 0.24 × 10^3 M^−1s^−1,5.34 ± 0.24 × 10^−2 s^−1,Fc-15F22: Human IgG1 Fc with (GGGGS)3-F22 (SEQ ID NO: 9) fused to its C-terminus (GGGGSGGGGSGGGGSREAPGAPRSPEPQDQKKPRNRR)
2.89 ± 0.07 × 10^4 M^−1s^−1,8.08 ± 0.06 × 10^−4 s^−1,B1

# Same assay, conditions: NRP1-b1b2, SPR; read-out: Binding affinity KD
row,Kd [µM],Molecule
1,39.7,Fc-15F22: Human IgG1 Fc with (GGGGS)3-F22 (SEQ ID NO: 9) fused to its C-terminus (GGGGSGGGGSGGGGSREAPGAPRSPEPQDQKKPRNRR)
2,0.0279,B1

# Target: T1, NRP2-b1b2 (b1b2 domain of neuropilin-2)
# Test: SPR (Biacore2000) binding to b1b2 domain of neuropilin-2
# Conditions: not given
# Procedure: as §1
Association rate ka,Dissociation rate kd,Molecule
1.05 ± 0.03 × 10^3 M^−1s^−1,1.30 ± 0.21 × 10^−2 s^−1,Fc-15F22: Human IgG1 Fc with (GGGGS)3-F22 (SEQ ID NO: 9) fused to its C-terminus (GGGGSGGGGSGGGGSREAPGAPRSPEPQDQKKPRNRR)
6.96 ± 0.03 × 10^3 M^−1s^−1,1.61 ± 0.28 × 10^−3 s^−1,B1

# Same assay, conditions: read-out: Binding affinity KD
row,Kd [µM],Molecule
1,12.4,Fc-15F22: Human IgG1 Fc with (GGGGS)3-F22 (SEQ ID NO: 9) fused to its C-terminus (GGGGSGGGGSGGGGSREAPGAPRSPEPQDQKKPRNRR)
2,0.231,B1

# Tested on: b1b2 domains of neuropilin-1 and -2
# Test: ELISA binding to b1b2 domains of neuropilin-1 and -2
# Conditions: 100 nM (peptides 100 nM, 1 μM)
# Procedure: The binding capacity of purified Fc-TPP to b1b2 domains of neuropilin-1 and -2 (neuropilin (NRP)1/2-b1b1 domain) was confirmed in Enzyme Linked Immunosorbent Assay (ELISA).
# The target molecules, b1b2 domains (273-586) of neuropilin-1 and b1b2 domains (275-595) of neuropilin-2, and the control group VEGFR2 (46-753) were bound in an amount of 1 μg each in 96-well EIA/RIA plates (COSTAR Corning In., USA) at room temperature for 1 hour, and then washed three times for 10 minutes with 0.1% PBST (0.1% Tween20, pH 7.4, 137 mM NaCl, 10 mM Phosphate, 2.7 mM KCl, SIGMA-ALDRICH co., USA). After binding for 1 hour with 5% skim milk (pH 7.4, 137 mM NaCl, 10 mM Phosphate, 2.7 mM KCl, SIGMA-ALDRICH co., USA), it was washed three times for 10 minutes with 0.1% PBST (0.1% Tween20, pH 7.4, 137 mM NaCl, 10 mM Phosphate, 2.7 mM KCl, SIGMA-ALDRICH co., USA). […] After binding to alkaline phosphatase (AP)-conjugated anti-biotin mAb (Sigma, USA) and reacting with pnitrophenyl […] (pNPP, SIGMA-ALDRICH co., USA), absorbance at 405 nm was quantified. From the ELISA result obtained from 30 minute-reaction of AP-pNPP, the binding capacity of expressed and purified Fc-TPP to b1b2 domains of neuropilin-1 and -2 was confirmed.
row,"binding to b1b2 domains of NRP-1 and -2 (ELISA, absorbance 405 nm)",Molecule
1,stronger bond,"A22p: A22 with Asn758Pro, SEQ ID NO: 2, HTPGNSNKWKHLQENKKGRPRR (A22p) [Clone A22p]"
2,stronger bond,"F22p: F22 with Asn777Pro, SEQ ID NO: 4, REAPGAPRSPEPQDQKKPRPRR (F22p) [Clone F22p]"

# Tested on: VE-cadherin in HUVEC
# Test: Western blot of VE-cadherin in HUVEC
# Type: cell-based, human
# Conditions: single peptides and Fc-TPP 1 μM, 10 minutes
# Description: During this process, a decrease in vascular endothelial (VE)-cadherin, phosphorylation, etc. of endothelial cells occur. That is, VE-cadherin or epithelial (E)-cadherin involves in adhesion between endothelial cells, while forming the base of adherent junction between endothelial cells and epithelial cells. The change in molecules relieve the density of adherent junction, which results in increasing permeability of blood vessels and improving intracellular permeability.
# As an experimental method for indirectly confirming improvement of vascular permeability based thereon, a change in VE-cadherin was confirmed through a Western blot. Specifically, HUVECs were seeded into 6-well plates at a density of 3×10^5 per well, followed by incubation for 24 hours. Thereafter, single peptides and Fc-TPP were treated with 1 μM for 10 minutes to perform a Western blot. Gel subjected to SDS-PAGE was transported into PVDF membrane, a primary antibody (SantaCruz) and an HRP-conjugated secondary antibody (SantaCruz) which recognize VE-cadherin and (3-actin, respectively were used for detection. ImageQuant LAS4000 mini (GE Healthcare) was used for analysis.
row,Molecule,change in VE-cadherin (Western blot)
1,"A22: Sema3A-derived 22 amino acid TPP, residues 739-760, SEQ ID NO: 1, HTPGNSNKWKHLQENKKGRNRR (A22) [Clone A22]",no change in VE-cadherin
2,"A22p: A22 with Asn758Pro, SEQ ID NO: 2, HTPGNSNKWKHLQENKKGRPRR (A22p) [Clone A22p]",no change in VE-cadherin
3,B1,a decrease in VE-cadherin was observed

# Tested on: HUVEC
# Test: Transwell assay of vascular endothelial cell permeability
# Type: cell-based, human
# Conditions: control ligands about 1.3 nM, 30 minutes
# Procedure: Based on the above experimental results, as experiments for confirming the improvement of vascular endothelial cell permeability, single peptides and Fc-TPP were treated to conduct Transwell assay.
# Specifically, HUVECs were seeded into Transwell plate (Corning) at a density of 5×10^4 per well in a upper chamber using Endothelial Growth Medium, PromoCell (EGM) medium, followed by incubation at 37° C. for 3 days under 5% CO2 condition. […] Thereafter, Dextran-FITC (Sigma) 50 μg was put into the upper chamber and the medium of the lower chamber was sampled to measure its fluorescence after 30 minutes, using the principle that a fluorescent substance is observed in the lower chamber when the permeability in HUVECs was improved.
row,Molecule,"permeability of HUVEC (Transwell, Dextran-FITC)"
1,B1,permeability of HUVEC was improved

# Same assay, conditions: single peptides and Fc-TPP 1 μM, 30 minutes
row,Molecule,"permeability of HUVEC (Transwell, Dextran-FITC)"
1,"A22: Sema3A-derived 22 amino acid TPP, residues 739-760, SEQ ID NO: 1, HTPGNSNKWKHLQENKKGRNRR (A22) [Clone A22]",improvement of vascular permeability was not induced
2,"A22p: A22 with Asn758Pro, SEQ ID NO: 2, HTPGNSNKWKHLQENKKGRPRR (A22p) [Clone A22p]",improvement of vascular permeability was not induced
3,"F22: Sema3F-derived 22 amino acid TPP, residues 758-779, SEQ ID NO: 3, REAPGAPRSPEPQDQKKPRNRR (F22) [Clone F22]",permeability of HUVEC was not improved
4,"F22p: F22 with Asn777Pro, SEQ ID NO: 4, REAPGAPRSPEPQDQKKPRPRR (F22p) [Clone F22p]",permeability of HUVEC was not improved
5,Fc-15F22: Human IgG1 Fc with (GGGGS)3-F22 (SEQ ID NO: 9) fused to its C-terminus (GGGGSGGGGSGGGGSREAPGAPRSPEPQDQKKPRNRR),permeability of HUVEC was not improved

# Tested on: A431 tumor
# Test: IHC of Fc-TPP infiltration in A431 tumor tissue
# Type: in vivo, Balb/c nude mice
# Conditions: A431 xenograft, 5 mg/kg intravenously, 3 hours
# Procedure: 3 hours after injection, tumors were extracted from mice to conduct immunohistochemistry experiment. The extracted tumors were cut into 20 μm thick using a frozen section method, and stained with a primary antibody, CD31 antibody (BD Pharmingen), and a TRITC (red fluorescence)-conjugated secondary antibody. Further, in order to observe Fc-TPP distributed in the tissues, FITC (green fluorescence)-conjugated antibodies recognizing Fc were used.
row,Molecule,infiltration into tumor tissue (IHC)
1,"A22: Sema3A-derived 22 amino acid TPP, residues 739-760, SEQ ID NO: 1, HTPGNSNKWKHLQENKKGRNRR (A22) [Clone A22]",did not infiltrate into the tissues
2,"A22p: A22 with Asn758Pro, SEQ ID NO: 2, HTPGNSNKWKHLQENKKGRPRR (A22p) [Clone A22p]",did not infiltrate into the tissues

# Tested on: FaDu tumor
# Test: In vivo Evans Blue assay of vascular permeability
# Design: species or system Balb/c nude mice
# Conditions: FaDu xenograft, 400 ng, 40 minutes
# Procedure: Additionally, in order to confirm the improvement of vascular permeability in vivo, Evans Blue assay was conducted. […] 40 minutes after injection, the mice were perfused through the heart with PBS containing 1% BSA, and tumor tissues were extracted (FIG. 11d). Then, the extracted tissues were put into 1 ml of […] (Sigma) and reacted at 37° C. overnight under mild shaking condition. Thereafter, the supernatant was obtained from centrifugation to measure the absorbance (600 nm), and the amount that Evans Blue penetrated was quantified.
row,Molecule,vascular permeability (Evans Blue)
1,B1,increased vascular permeability
